The source of these data is patent publication US20250186562A1 (University of California, published 2025).

No end group written: not given here. fluorescein = fluorescein attached to the C-terminus

Assay [1] has as its target T1, Purified GST (glutathione S-transferase) (UniProt P08515 1-218 = GST).
T1 construct: Control protein in the FP assay; also called GST alone
Description: fluorescence polarization, GST titrated into 9 nM tracer. From the text:
The FP assay uses a tetrapeptide with a sequence arginine-isoleucine-phenylalanine-serine (RIFS) with fluorescein attached to the C-terminus as tracer that was previously shown to bind to the Ubr-boxes of Ubr1 and Ubr2 with similar binding affinity. Assays were developed in 384-well plates, which were read on a Clariostar Reader. Signal-to-background ratio (S/B) was optimized by varying concentrations of GST-Ubr-box and tracer concentrations. GST-fusion proteins were used due to its larger size than Ubr-box alone to increase the FP effect. […] The optimized condition includes receptor concentration [GST-UBR1]=2 μM, tracer concentration [tracer]=9 nM, and the highest concentration of unlabeled peptidomimetic compound competitors at 200 μM with 3× serial dilutions.
For orientation: Polarisation of emitted light reports the rotation of a fluorescent probe.

In assay [2] the target is T2, GST-UBR1 fusion protein (GST-Ubr-box of Ubr1) (human).
T2 construct: GST fusion used as such in the FP assay
Kind of assay: fluorescence polarization, GST-Ubr-box titrated into 9 nM tracer.

For assay [3], the target named is T3, GST-UBR2 fusion protein (GST-Ubr-box of Ubr2) (human).
T3 construct: GST fusion used as such in the FP assay
The description is as above.

For a further assay, the target named is T4, GST-Ubr-box of Ubr4 (UniProt Q5T4S7 1656-1729).
T4 construct: domain: Ubr-box; not shown: glutathione S-transferase (GST) tag
The description is as above.

Another assay concerns the target T5, GST-Ubr-box of Ubr5 (UniProt O95071 1177-1245).
T5 construct: domain: Ubr-box; not shown: glutathione S-transferase (GST) tag
T5 sequence (looked up): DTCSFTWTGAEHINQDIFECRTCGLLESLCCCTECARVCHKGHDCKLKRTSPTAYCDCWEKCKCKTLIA
The assay is described as above.

T2 sequence (chain, as listed by the source limits assumed): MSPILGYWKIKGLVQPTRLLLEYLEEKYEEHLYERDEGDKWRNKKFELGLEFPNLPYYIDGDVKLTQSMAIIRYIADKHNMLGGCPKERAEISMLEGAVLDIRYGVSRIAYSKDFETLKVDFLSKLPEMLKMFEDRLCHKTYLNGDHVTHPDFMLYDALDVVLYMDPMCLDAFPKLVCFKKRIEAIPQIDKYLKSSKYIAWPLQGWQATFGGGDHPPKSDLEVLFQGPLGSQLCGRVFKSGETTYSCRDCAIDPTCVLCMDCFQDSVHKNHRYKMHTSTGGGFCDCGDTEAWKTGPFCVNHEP
T1 sequence (P08515 whole entry): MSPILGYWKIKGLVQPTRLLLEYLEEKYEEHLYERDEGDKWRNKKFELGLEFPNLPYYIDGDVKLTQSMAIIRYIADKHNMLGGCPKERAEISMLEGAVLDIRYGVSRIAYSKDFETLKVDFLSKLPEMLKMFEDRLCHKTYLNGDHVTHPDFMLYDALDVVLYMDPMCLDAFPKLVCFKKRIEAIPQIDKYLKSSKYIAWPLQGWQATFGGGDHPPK
T4 sequence (Q5T4S7 1656-1729): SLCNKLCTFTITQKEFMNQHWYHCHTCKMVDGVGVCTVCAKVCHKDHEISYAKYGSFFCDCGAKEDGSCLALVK
T3 sequence (chain, as listed by the source limits assumed): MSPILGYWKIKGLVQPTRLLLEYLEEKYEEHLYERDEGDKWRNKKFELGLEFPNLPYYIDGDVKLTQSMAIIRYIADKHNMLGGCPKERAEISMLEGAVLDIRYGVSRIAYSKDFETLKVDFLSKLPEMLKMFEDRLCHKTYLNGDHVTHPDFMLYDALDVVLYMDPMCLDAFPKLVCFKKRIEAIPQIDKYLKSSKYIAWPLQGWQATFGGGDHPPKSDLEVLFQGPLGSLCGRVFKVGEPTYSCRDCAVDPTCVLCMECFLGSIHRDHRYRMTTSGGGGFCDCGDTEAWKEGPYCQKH

B1: tetrapeptide arginine-isoleucine-phenylalanine-serine (RIFS) with fluorescein attached to the C-terminus (peptide)
peptide: RIFS-fluorescein
notes: FP tracer, used at 9 nM; also called tracer
In the case of B1, the binding result is given as “no binding” in assay [1]; “binds” in assay [2]; “binds” in assay [3]; “no binding” with GST-Ubr-box of Ubr4; “no binding” with GST-Ubr-box of Ubr5.
